Measured values reported in patent US20070286858A1 (Pfizer, published 2007).

How the values were obtained:
[1] = target: T1, human RAGE-Fc fusion protein (human, UniProt Q15109 23-344); experiment: ligand competition ELISA, panel Blocks hRAGE-Fc interaction with S100-A; blocked ligand S100-A
T1 construct: also called hRAGE-Fc; huRAGE-Fc; not shown: Fc domain of human IgG

[2] = target: T2, soluble human streptavidin-tagged RAGE (human, UniProt Q15109 23-344); experiment: BIACORE capture assay, antibody on CM5 chip, hRAGE-SA 0-100 nM in solution
T2 construct: also called hRAGE-SA; human RAGE-strep
Experimental: The assays were performed by coating antibodies onto a CM5 BIA chip with 5000-7000 RU.

[3] = target: T1, human RAGE-Fc fusion protein; experiment: ligand competition ELISA, panel Blocks hRAGE-Fc interaction with S100-B; blocked ligand S100-B
[4] = target: T3, murine RAGE-strep tag fusion protein (mouse, UniProt Q62151 23-343); experiment: ELISA, mRAGE-strep
T3 construct: also called mRAGE-strep; mRAGE-SA
T3 chain: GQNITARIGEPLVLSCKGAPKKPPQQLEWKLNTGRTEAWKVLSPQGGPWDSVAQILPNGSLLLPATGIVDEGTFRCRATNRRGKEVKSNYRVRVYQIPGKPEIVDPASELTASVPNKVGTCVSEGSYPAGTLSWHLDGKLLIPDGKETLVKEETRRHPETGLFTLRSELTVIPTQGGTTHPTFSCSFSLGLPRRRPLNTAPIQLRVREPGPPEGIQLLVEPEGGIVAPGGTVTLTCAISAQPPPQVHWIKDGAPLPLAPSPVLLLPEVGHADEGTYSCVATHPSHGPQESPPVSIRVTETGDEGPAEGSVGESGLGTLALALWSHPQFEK

murine RAGE, full length = target: T4, murine RAGE, full length (mouse, UniProt Q62151 23-402); experiment: cell-based ELISA, 293 cells transfected with murine RAGE
T4 construct: Expressed on 293 cells; also called mRAGE; 293-murine RAGE
T4 chain: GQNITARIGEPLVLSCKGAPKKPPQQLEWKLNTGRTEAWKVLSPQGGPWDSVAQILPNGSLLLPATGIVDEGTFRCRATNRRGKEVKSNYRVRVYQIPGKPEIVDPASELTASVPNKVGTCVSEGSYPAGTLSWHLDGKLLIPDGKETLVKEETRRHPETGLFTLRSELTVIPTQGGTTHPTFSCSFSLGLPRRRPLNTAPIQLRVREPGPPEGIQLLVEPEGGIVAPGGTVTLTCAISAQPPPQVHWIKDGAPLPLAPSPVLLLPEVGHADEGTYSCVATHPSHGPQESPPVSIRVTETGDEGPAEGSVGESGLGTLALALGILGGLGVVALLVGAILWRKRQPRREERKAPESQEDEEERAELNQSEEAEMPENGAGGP
Experimental: Human embryonic kidney 293 cells (American Tissue Type Culture, Manassas, Va.) cells were plated at 5×10⁶ cells per 10 cm² tissue culture plate and cultured overnight at 37° C. The next day cells were transfected with RAGE expression plasmids (pAdori1-3 vector encoding mouse, human, baboon, cynomologus monkey or rabbit RAGE) using LF2000 reagent (Invitrogen, Carlsbad Calif.) at a 4:1 ratio of reagent to plasmid DNA using the manufacturers protocol. Cells were harvested 48 hrs post-transfection using trypsin, washed once with phosphate buffered saline (PBS), then suspended in growth media without serum at a concentration of 2×10⁶ cells/ml.
Primary antibodies at 1 μg/ml were serially diluted at 1:2 or 1:3 in PBS containing 1% bovine serum albumin (BSA) in a 96-well plate. RAGE-transfected 293 cells or control parental 293 cells (50 μl) at 2×10⁶ cells/ml in serum-free growth medium were added to U-bottom 96 well plate for a final concentration of 1×10⁵ cells/well. The cells were centrifuged at 1600 rpm for 2 minutes. The supernatants were gently discarded by hand with a one-time swing and the plate was patted gently to loose the cell pellet. […] The cells were centrifuged and the supernatants are transferred to a fresh plate and read at 450 nm (Soft MAX pro 4.0, Molecular Devices Corporation, Sunnyvale, Calif.).

[5] = target: T1, human RAGE-Fc fusion protein; experiment: BIACORE direct binding, hRAGE-Fc immobilized
Experimental: The binding of selected murine and rat anti-RAGE antibodies to human and murine RAGE and to the V domains of human and murine RAGE was analyzed by BIACORE® direct binding assay. […] Solution of the anti-RAGE antibodies at two concentrations, 50 and 100 nm, were run over the immobilized RAGE-Fc proteins in duplicate. BIACORE™ technology utilizes changes in the refractive index at the surface layer upon binding of the anti-RAGE antibodies to the immobilized RAGE antigen. Binding is detected by surface plasmon resonance (SPR) of laser light refracting from the surface.
The kinetic rate constants (kₐ and kd) and association and dissociation constants (Kₐ and Kd) for the binding of murine and rat anti-RAGE antibodies to human and murine RAGE were determined by BIACORE™ direct binding assay. Analysis of the signal kinetics data for on-rate and off-rate allows the discrimination between non-specific and specific interactions.

B1: XT-M4 (antibody, rat IgG2b, V domains shown)
VH: EVQLVESGGGLVQPGRSLKLSCVVSGFTFNNYWMTWIRQTPGKGLEWVASINNSGDNTYYPDSVKDRFTISRDNAKSTLYLQMNSLRSEDTATYYCTRGGDITTGFDYWGQGVMVTVSS
VL: DIQMTQSPSSMSVSLGDTITITCRASQDVGIYVNWFQQKPGKSPRRMIYRATNLADGVPSRFSGSRSGSIYSLTISSLESEDVADYHCLEFDEHPLTFGSGTKVEIK
notes: also called 1mRAGEP3/10; rat XT-M4
[1]
  IC50 (read off the curve): ~0.07 µg/mL
[2]
  Ka: 2.03e+08 M⁻¹
  Kd: 4.92 nM
  koff: 0.0186 s⁻¹
  kon: 3.78e+06 M⁻¹ s⁻¹
[3]
  IC50 (read off the curve): ~0.1 µg/mL
[4]
  binding result: binds
Murine RAGE, full length
  EC50: ~2.2 nM
[5]
  Ka: 1e+09 M⁻¹
  Kd: 0.995 nM
  koff: 0.00116 s⁻¹
  kon: 1.16e+06 M⁻¹ s⁻¹
